Results: article PMC7530888 (Nucleic Acids Research, 2020)
Where “and” joins values, the source holds several entries; their conditions need not be identical. Equal entries are not always repeated.

Assay: Small angle X-ray scattering
Format: physicochemical, M. tuberculosis
Conditions: for Rg [from Guinier] / Rg [from P(r)]: BM29 ESRF, 10°C; for Rg [from Guinier]: 50 mM Tris pH 8.0, 200 mM NaCl, 2 mM βME; for Rg [from P(r)]: pH 8.0

| Substance | Rg [from Guinier] [nm] | Rg [from P(r)] | Rg in presence of nicked DNA (presence of nicked DNA substrate (S1), from P(r)) [nm] |
| --- | --- | --- | --- |
| MtbLigA+Nicked DNA: MtbLigA in complex with 27-mer nicked DNA (S1) | 4.49±0.07 | 4.49±0.06 nm |  |
| MtbLigA: M. tuberculosis NAD^+-dependent DNA ligase A, full-length | 5.22±0.08 | 5.20 nm and 5.20±0.06 nm | 4.49 |
